Assay [1] addresses T1, MBP-Aβ40 fusion protein.
T1 construct: the entry may be a nucleic acid; Biotin-labelled in the capture ELISA, unlabeled in the direct ELISA and SPR; also called MBP-Abeta40
Put plainly: SPR (Biacore), MBP-Aβ40 amine-coupled; same experiment as the 1st table, row 20, column 2, printed with more digits. The protocol: (§1) FIG. 8 depicts the kinetic real time analysis of Lcn2 muteins S1-A4 (A) and US7 (B) measured on a Biacore instrument at a flow rate of 10 μl/min. The MBP-Aβ40 fusion protein was coupled via amine chemistry on a CMD 200I chip (ΔRU=1455) and each of the purified Lcn2 muteins was applied in a series at different concentrations. The measured signal is shown as a grey line whereas the curve fit is depicted as a black line in each case.
(§2) Real time analysis of Lcn2 muteins was performed on a Biacore X system (Biacore, Uppsala, Sweden) using PBS/T (PBS containing 0.005% (v/v) Tween 20) as running buffer. A 50 μg/mL solution of MBP-Aβ40 from Example 2 in 10 mM Na-acetate, pH 4.5 was immobilized onto a […] chip (Xantec, Düsseldorf, Germany) using standard amine coupling chemistry, resulting in a ligand density of 1455 resonance units (RU). […] The sensorgrams were corrected by subtraction of the corresponding signals measured for the control channel, which had been activated and blocked with ethanolamine. […] During this step the kₒₙ and koff rates were fitted globally, while the maximum response difference Rₘₐₓ was fitted locally for each curve.

A further assay concerns the target T2, central peptide Aβ16-27.
T2 construct: Bought from the Peptide Speciality Laboratory
T2 peptide: KLVFFAEDVGSN
Nature of the assay: capture ELISA: mutein captured, Aβ16-27 titrated.

Assay [2] has as its target T3, Trx-Aβ28 fusion protein (Escherichia coli (strain K12), UniProt P0AA25 1-76 = thioredoxin, Biotin-labelled through an NHS ester (2:1) in the capture and competitive ELISAs; unlabeled in the direct ELISA and as competitor.).
T3 construct: the entry may be a nucleic acid; also called TrxAbeta28H6
Nature of the assay: direct ELISA: Trx-Aβ28 coated, mutein titrated, detected via Strep-tag II. The protocol:
The Aβ targets Trx-Aβ28 and MBP-Aβ40 as well as the control protein maltose binding protein (MBP) were immobilized at 2 μM in PBS over night. Bound Lcn2 muteins were detected via their Strep-tag II using Streptavidin/AP followed by a chromogenic reaction with pNPP. As a control, the binding of wild-type (wt) lipocalin was tested. The data were fitted to a monovalent binding model.
Alternatively, for a “direct” ELISA, 2 μM unlabeled Aβ40 target from Example 2 was adsorbed onto a 96-well MaxiSorp polystyrene microliter plate (Nunc, Langenselbold, Germany) and incubated with the purified Lcn2 mutein, which was detected via the Strep-tag II using a 1:1500 dilution of Streptavidin/AP conjugate (GE Healthcare UK Ltd, Buckinghamshire, UK). As a control, 2 μM MBP from Example 2 was adsorbed onto the ELISA plate. Absorption at 405 nm was measured in a SpectraMax 250 reader (Molecular Devices, Sunnyvale, USA).
In general terms: An ELISA detects its analyte on a solid surface through an enzyme-linked reagent.

In assay [3] the target is T4, biotinylated Aβ40 peptide (human, C-terminal biotin group attached via a lysine spacer).
T4 construct: Synthetic peptide (Peptide Speciality Laboratory) with a C-terminal biotin on a lysine spacer; used in the capture ELISAs
T4 sequence (peptide, as listed by the source): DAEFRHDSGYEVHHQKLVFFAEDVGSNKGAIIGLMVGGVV
Nature of the assay: capture ELISA: mutein captured via Strep-tag II on StrepMAB-Immo, biotinylated Aβ40 titrated. The protocol: (§3) FIG. 5 depicts the binding activity of the Lcn2 muteins H1-G1, S1-A4, and US7 in capture ELISAs with different biotinylated Aβ targets. StrepMAB-Immo at 10 μg/ml was immobilized on microtitre plates and employed for capturing of 1 JAM Lcn2 muteins via the Strep-tag H. In figures A to C the binding of the Lcn2 muteins S1-A4 and US7 to (A) biotinylated Aβ40, (B) biotinylated Trx-Aβ28, and (C) biotinylated MBP-Aβ40 are shown. Binding was detected by incubation with ExtrAvidin/AP and a subsequent chromogenic reaction with pNPP. Ovalbumin (Ova), thioredoxin (Trx), and maltose binding protein (MBP) were used as negative controls. Additionally, binding of wild-type (wt) lipocalin was tested. The data were fitted to a monovalent binding model.
For selective capturing of the Lcn2 muteins carrying the C-terminal Strep-tag II (Schmidt and Skerra (2007) Nat. Protoc. 2, 1528-1535), a 96-well MaxiSorp polystyrene microtitre plate (Nunc, Langenselbold, Germany) was coated with 10 μg/mL StrepMAB-Immo (IBA, Göttingen, Germany) in PBS over night at 4° C. and blocked with 3% (w/v) BSA in PBS/T at room temperature for 1 h. After 3 washing steps with PBS/T, 50 μL of a 1 μM solution of the purified Lcn2 muteins from Example 7 were applied to all wells for 1 h. After washing, 50 μL of a dilution series of the biotinylated targets Aβ40, MBP-Aβ40 or Trx-Aβ28 from Example 2 were added and incubated for 1 h whereby the biotinylated forms of Ova, MBP and Trx from Example 2 served as negative control proteins. The wells were washed again and bound conjugate was detected with 50 μL of ExtrAvidin/AP conjugate (Sigma-Aldrich, Steinheim, Germany) diluted 1:5000 in PBS/T for 1 h, followed by signal development in the presence of 100 μL 0.5 mg/mL p-nitrophenyl phosphate (AppliChem, Darmstadt, Germany) in 100 mM Tris/HCl, pH 8.8, 100 mM NaCl, 5 mM MgCl₂.

The target of assay [4] is T1, MBP-Aβ40 fusion protein. Put plainly: capture ELISA: mutein captured, biotinylated MBP-Aβ40 titrated. The protocol:
as §3
For selective capturing of the Lcn2 muteins carrying the C-terminal Strep-tag II (Schmidt and Skerra (2007) Nat. Protoc. 2, 1528-1535), a 96-well MaxiSorp polystyrene microtitre plate (Nunc, Langenselbold, Germany) was coated with 10 μg/mL StrepMAB-Immo (IBA, Göttingen, Germany) in PBS over night at 4° C. and blocked with 3% (w/v) BSA in PBS/T at room temperature for 1 h. After 3 washing steps with PBS/T, 50 μL of a 1 μM solution of the purified Lcn2 muteins from Example 7 were applied to all wells for 1 h. […]

The target in assay [5] is T3, Trx-Aβ28 fusion protein. Put plainly: competitive ELISA: mutein captured, 5 nM biotinylated Trx-Aβ28 as tracer, unlabeled Trx-Aβ28 varied as competitor.
The target of assay [6] is T1, MBP-Aβ40 fusion protein. Nature of the assay: SPR (Biacore), MBP-Aβ40 amine-coupled (1455 RU), mutein as analyte. The protocol: as §1, §2
(In SPR one partner is held on a chip, and binding of the other changes the refractive index at the surface.)

B1: Lcn2 mutein S1-A4 (designed binder)
chain: QDSTSDLIPAPPLSKVPLQQNFQDNQFHGKWYVVGVAGNYTLREDKDPLKMYATIYELKEDKSYNVTSVGFRLKKCNYKIRTFVPGSQPGEFTLGIIKSQPGMTSYLVRVVSTNYNQHAMVFFKTVGQNREMFNITLYGRTKELTSELKENFIRFSKSLGLPENHIVFPVPIDQCIDG
In the case of B1, the Kd with MBP-Aβ40 fusion protein [1] was determined as 1.74 nM; with central peptide Aβ16-27, 2.6 nM; with Trx-Aβ28 fusion protein [2], 16.2 nM; in assay [3] it was 2.7 nM; in the assay with MBP-Aβ40 fusion protein [4], 4.7 nM; with Trx-Aβ28 fusion protein [5] it was 21.7 nM. The koff with MBP-Aβ40 fusion protein [6] turned out to be 8.36e-05 s⁻¹. The molecule also returned a kon in the assay with MBP-Aβ40 fusion protein [6] of 48000 M⁻¹ s⁻¹.

A word on the Kd: it is the equilibrium constant for the complex coming apart. A lower Kd goes with higher affinity. One may read the koff as the first-order rate constant of dissociation. Low readings indicate a long-lived complex, high ones a short-lived complex. One may read the kon as the second-order rate constant of association. A low value points to slower complex formation.
